Laboratory results reported in patent US20160168250A1 (Genentech, published 2016).

T1: His-tagged IgD2-D3 of human FGFR3-IIIb (human, UniProt P22607-2 143-374, limits assumed)
T1 construct: domain: IgD2-D3; also called FGFR3-IIIb-His protein; Human FGFR3 ECD IIIb; not shown: His tag
T1 sequence (looked up): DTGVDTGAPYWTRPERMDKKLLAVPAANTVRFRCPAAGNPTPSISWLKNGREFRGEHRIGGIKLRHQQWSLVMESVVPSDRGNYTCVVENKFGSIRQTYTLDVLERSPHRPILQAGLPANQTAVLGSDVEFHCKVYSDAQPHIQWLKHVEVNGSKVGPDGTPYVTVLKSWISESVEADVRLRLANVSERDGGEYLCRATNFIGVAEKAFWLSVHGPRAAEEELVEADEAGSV

T2: human FGFR3-IIIb ECD-human Fc chimeric protein (human, UniProt P22607-2 23-377)
T2 construct: extracellular domain; also called FGFR3-Fc chimeric protein (IIIb); not shown: human Fc
T2 sequence (looked up): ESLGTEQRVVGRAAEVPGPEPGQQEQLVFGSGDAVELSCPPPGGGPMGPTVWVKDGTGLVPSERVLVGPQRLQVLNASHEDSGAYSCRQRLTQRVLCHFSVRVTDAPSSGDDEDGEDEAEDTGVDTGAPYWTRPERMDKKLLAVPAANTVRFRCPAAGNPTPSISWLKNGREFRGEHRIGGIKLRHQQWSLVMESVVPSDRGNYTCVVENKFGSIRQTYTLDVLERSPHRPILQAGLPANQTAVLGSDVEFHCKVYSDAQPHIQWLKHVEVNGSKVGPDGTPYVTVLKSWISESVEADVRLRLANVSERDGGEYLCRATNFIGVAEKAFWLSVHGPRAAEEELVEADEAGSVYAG


Key:
[1] = biological target: T1, His-tagged IgD2-D3 of human FGFR3-IIIb; assay: BIAcore
[2] = biological target: T3, FGFR3 on KMS11 cells (human, UniProt P22607); assay: Scatchard analysis: radioiodinated (125I) R3Mab on KMS11 cells in suspension with unlabeled antibody, 2 h at room temperature; mean of two binding experiments
T3 construct: full length, on cells; also called FGFR3 Y373C
Protocol: (§1) FIGS. 23A and 23B: Cell surface expression levels of FGFR3 in myeloma and bladder cancer cells. (FIG. 23A) Cell surface FGFR3 expression in myeloma cells and bladder cancer cells assessed by FACS analysis. Cells were stained with phycoerythin-conjugated mouse mAb against human FGFR3 (FAB766P, R&D Systems) or phycoerythin-conjugated isotype control mouse IgG1(BD Pharmingen). (FIG. 23B) Scatchard analysis of FGFR3 density in myeloma cells and bladder cancer cells. […] After incubation at RT for 2 hours, cells were pelleted by centrifugation and washed twice. Specifically bound ¹²⁵I was determined.

[3] = biological target: T2, human FGFR3-IIIb ECD-human Fc chimeric …; assay: ELISA: blocking of FGF1 binding to captured FGFR3-IIIb-Fc
Protocol: (§2) Specific binding was detected using an anti-human Fab antibody. […] Error bars represent standard error of the mean (SEM) and are sometimes smaller than symbols.
(§3) To test the effect of antibodies to FGFR3 on FGF/FGFR3 interaction, FGFR3-Fc chimeric proteins were captured on Maxisorp plate coated with anti-human immunoglobulin Fcγ fragment-specific antibody (Jackson Immunoresearch, West Grove, Pa.). After wash, increasing amount of FGFR3 antibody was added to the plate and incubated for 30 minutes.

[4] = biological target: T4, FGFR3 on UMUC-14 cells (human, UniProt P22607-2); assay: Scatchard analysis: radioiodinated (125I) R3Mab on UMUC-14 cells in suspension with unlabeled antibody, 2 h at room temperature; mean of two binding experiments
T4 construct: full length, on cells; Same protein as r1, here on intact cells and not in lysates; also called FGFR3^S249C on cells
Protocol: as §1

[5] = biological target: T5, FGFR3 on RT112 cells (human, UniProt P22607-2); assay: Scatchard analysis: radioiodinated (125I) R3Mab on RT112 cells in suspension with unlabeled antibody, 2 h at room temperature; mean of two binding experiments
T5 construct: full length, on cells; also called WT FGFR3
Protocol: as §1

[6] = biological target: T6, FGFR3 on OPM2 cells (human, UniProt P22607); assay: Scatchard analysis: radioiodinated (125I) R3Mab on OPM2 cells in suspension with unlabeled antibody, 2 h at room temperature; mean of two binding experiments
T6 construct: full length, on cells; also called FGFR3 K650E
Protocol: as §1

[7] = biological target: T7, human FGFR4 ECD-human Fc chimeric protein (human, UniProt P22455 22-369); assay: direct ELISA: FGFR ECD-human Fc chimeric protein coated on the plate, R3Mab titrated, detection with HRP anti-human Fab
T7 construct: extracellular domain; not shown: human Fc
From the text: as §2
(§4) cDNAs encoding the extracellular domains (ECD) of human FGFR1-IIIb, IIIc, FGFR2-IIIb and IIIc, FGFR3-IIIb and IIIc, and FGFR4 were cloned into pRK-based vector to generate human FGFR-human Fc chimeric proteins. The recombinant proteins were produced by transiently transfecting Chinese hamster ovary (CHO) cells and purified via protein A affinity chromatography. To test binding of antibodies to human FGFRs, Maxisorp 96-well plates (Nunc) were coated overnight at 4° C. with 50 μl of 2 μg/ml of FGFR ECD-human Fc chimeric proteins. After blocking with phosphate-buffered saline (PBS)/3% BSA, FGFR3 antibody was added and incubated at RT for 2 hours. Specifically bound FGFR3 antibody was detected using an HRP-conjugated anti-human Fab and the TMB peroxidase colorigenic substrate (KPL, Gaithersburg, Md.).

[8] = biological target: T2, human FGFR3-IIIb ECD-human Fc chimeric …; assay: as above
From the text: as §2, §4

[9] = biological target: T2, human FGFR3-IIIb ECD-human Fc chimeric …; assay: ELISA: blocking of FGF9 binding to captured FGFR3-IIIb-Fc
Protocol: as §2, §3

[10] = biological target: T1, His-tagged IgD2-D3 of human FGFR3-IIIb; assay: BIAcore; R3Mab on CM5 chip, FGFR3-His injected
Protocol: For kinetic measurement, two-fold serial dilutions of FGFR3-IIIb or IIIc-His protein (starting from 67 nM) were injected in PBST buffer at 25° C. with a flow rate of 30 μl/minute. Association rates (Kon, per mol/s) and dissociation rates (Koff, per s) were calculated using a simple one-one Langmuir binding model (BIAcore Evaluation Software version 3.2). The equilibrium dissociation constant (Kd, per mol) was calculated as the ratio of Koff/Kon.

Kd [1] [nM] | Kd [2] [nM] | IC50 [3] [nM] | Kd [4] [nM] | Kd [5] [nM] | Kd [6] [nM] | binding result [7] | EC50 (read off the curve) [8] [nM] | IC50 [9] [nM] | Kd [10] [nM] | koff [10] [s⁻¹] | kon [10] [M⁻¹ s⁻¹] | Binder
0.19 | – | – | – | – | – | – | – | – | – | – | – | anti-FGFR3 antibody clone 184.6.58 (antibody, V domains shown) VH: EVQLVESGGGLVQPGGSLRLSCAASGFTFTSTGISWVRQAPGKGLEWVGRIYPTNGSTNYADSVKGRFTISADTSKNTAYLQMNSLRAEDTAVYYCARTYGIYDLYVDYTEYVMDYWGQGTLVTVSS VL: DIQMTQSPSSLSASVGDRVTITCRASQDVDISLAWYQQKPGKAPKLLIYSASSLASGVPSRFSGSGSGTDFTLTISSLQPEDFATYYCQQGAGNPYTFGQGTKVEIK
– | 0.35 | 0.3 | 0.34 | 0.16 | 0.64 | no binding (tested: about 60 nM) | ~0.3 | 1.1 | 0.111 | 0.0002 | 1.8e+06 | anti-FGFR3 antibody clone 184.6.1N54S (antibody, V domains shown, also called R3Mab; R3 Mab) VH: EVQLVESGGGLVQPGGSLRLSCAASGFTFTSTGISWVRQAPGKGLEWVGRIYPTSGSTNYADSVKGRFTISADTSKNTAYLQMNSLRAEDTAVYYCARARTYGIYDLYVDYTEYVMDYWGQGTLV VL: DIQMTQSPSSLSASVGDRVTITCRASQDVDTSLAWYQQKPGKAPKLLIYSASFLYSGVPSRFSGSGSGTDFTLTISSLQPEDFATYYCQQSTGHPQTFGQGTKVEIKR
